Key:
GST-Miro1 ΔEF = GST-Miro1 ΔEF (UniProt Q8IXI2); experiment: pull-down; as a5 but at 5 uM [Ca2+]free; band normalised to the level in 0 Ca2+
GST-Miro1 WT = GST-Miro1 WT (UniProt Q8IXI2); experiment: as above
GST-Miro1 WT, sequence (Q8IXI2 whole entry): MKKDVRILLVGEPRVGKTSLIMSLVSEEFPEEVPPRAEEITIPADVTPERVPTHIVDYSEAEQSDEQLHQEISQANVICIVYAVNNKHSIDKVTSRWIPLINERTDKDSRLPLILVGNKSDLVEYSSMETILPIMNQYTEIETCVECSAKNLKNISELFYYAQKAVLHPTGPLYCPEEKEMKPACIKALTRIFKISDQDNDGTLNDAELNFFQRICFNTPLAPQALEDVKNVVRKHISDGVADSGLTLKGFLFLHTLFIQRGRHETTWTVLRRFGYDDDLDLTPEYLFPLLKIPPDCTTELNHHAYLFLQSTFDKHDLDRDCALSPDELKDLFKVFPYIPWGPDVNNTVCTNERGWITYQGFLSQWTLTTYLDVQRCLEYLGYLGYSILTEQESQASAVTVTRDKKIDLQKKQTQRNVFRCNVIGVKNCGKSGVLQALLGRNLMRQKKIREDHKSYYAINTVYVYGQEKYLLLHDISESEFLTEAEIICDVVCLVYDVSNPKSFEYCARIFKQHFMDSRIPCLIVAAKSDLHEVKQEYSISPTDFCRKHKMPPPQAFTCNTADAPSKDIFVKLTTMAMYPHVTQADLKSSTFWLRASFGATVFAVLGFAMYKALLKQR

KIF5 motors (endogenous, detected using a pan-KIF5 antibody), sequence (Q2PQA9 whole entry): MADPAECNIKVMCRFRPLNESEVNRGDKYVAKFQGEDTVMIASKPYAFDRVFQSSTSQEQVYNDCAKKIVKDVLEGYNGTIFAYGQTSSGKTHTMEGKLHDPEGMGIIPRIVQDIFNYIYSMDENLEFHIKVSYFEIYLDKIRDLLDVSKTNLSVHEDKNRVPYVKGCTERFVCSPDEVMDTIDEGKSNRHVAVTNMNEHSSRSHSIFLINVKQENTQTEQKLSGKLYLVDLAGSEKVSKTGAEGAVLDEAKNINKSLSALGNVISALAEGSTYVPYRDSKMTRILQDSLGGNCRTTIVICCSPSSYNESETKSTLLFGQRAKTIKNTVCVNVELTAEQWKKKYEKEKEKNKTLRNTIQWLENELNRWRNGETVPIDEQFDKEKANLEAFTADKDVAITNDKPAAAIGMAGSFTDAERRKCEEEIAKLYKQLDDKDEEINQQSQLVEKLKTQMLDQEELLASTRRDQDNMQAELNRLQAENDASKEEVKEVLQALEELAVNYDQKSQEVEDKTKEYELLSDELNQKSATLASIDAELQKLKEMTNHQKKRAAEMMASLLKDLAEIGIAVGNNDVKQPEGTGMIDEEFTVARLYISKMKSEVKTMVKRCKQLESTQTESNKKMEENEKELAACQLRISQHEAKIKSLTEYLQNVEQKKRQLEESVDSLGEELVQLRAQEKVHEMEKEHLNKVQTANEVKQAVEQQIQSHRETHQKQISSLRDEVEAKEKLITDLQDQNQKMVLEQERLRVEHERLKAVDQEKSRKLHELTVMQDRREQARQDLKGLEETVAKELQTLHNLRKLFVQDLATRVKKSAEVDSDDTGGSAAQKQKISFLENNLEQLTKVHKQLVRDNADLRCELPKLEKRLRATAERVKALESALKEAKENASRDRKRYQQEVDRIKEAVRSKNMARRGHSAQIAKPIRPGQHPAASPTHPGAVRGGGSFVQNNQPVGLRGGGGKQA
GST-Miro1 ΔEF, sequence (Q8IXI2 whole entry E208K/E328K): as the sequence (Q8IXI2 whole entry) above, with E208K, E328K counted along it

percent of the level in 0 [Ca2+], at 5 uM [Ca2+] (GST-Miro1 ΔEF): 87%
percent of the level in 0 [Ca2+], at 5 uM [Ca2+]free (GST-Miro1 WT): 15%
Substance: KIF5 motors (endogenous, detected using a pan-KIF5 antibody) (from UniProt Q2PQA9 1-963) (natural protein)

From publication PMC2670979
